In patent US20200377588A1, “Highly Versatile Method of Presenting Cyclic Peptide on Protein Structure” (The University of Tokyo, priority 2017, published 2020):
Values belong to the molecule of their own block, whether it stands above or below them.

Key:
Plexin B1-PA = biological target: T1, Plexin B1-PA (Homo sapiens, UniProt O43157); assay: pull-down type binding experiment, Plexin B1-PA captured on NZ-1 Sepharose, SDS-PAGE
T1 construct: made in house; host or cells: Expi293F cells (secreted, culture supernatant)
T1 sequence (O43157 20-1490 limits assumed): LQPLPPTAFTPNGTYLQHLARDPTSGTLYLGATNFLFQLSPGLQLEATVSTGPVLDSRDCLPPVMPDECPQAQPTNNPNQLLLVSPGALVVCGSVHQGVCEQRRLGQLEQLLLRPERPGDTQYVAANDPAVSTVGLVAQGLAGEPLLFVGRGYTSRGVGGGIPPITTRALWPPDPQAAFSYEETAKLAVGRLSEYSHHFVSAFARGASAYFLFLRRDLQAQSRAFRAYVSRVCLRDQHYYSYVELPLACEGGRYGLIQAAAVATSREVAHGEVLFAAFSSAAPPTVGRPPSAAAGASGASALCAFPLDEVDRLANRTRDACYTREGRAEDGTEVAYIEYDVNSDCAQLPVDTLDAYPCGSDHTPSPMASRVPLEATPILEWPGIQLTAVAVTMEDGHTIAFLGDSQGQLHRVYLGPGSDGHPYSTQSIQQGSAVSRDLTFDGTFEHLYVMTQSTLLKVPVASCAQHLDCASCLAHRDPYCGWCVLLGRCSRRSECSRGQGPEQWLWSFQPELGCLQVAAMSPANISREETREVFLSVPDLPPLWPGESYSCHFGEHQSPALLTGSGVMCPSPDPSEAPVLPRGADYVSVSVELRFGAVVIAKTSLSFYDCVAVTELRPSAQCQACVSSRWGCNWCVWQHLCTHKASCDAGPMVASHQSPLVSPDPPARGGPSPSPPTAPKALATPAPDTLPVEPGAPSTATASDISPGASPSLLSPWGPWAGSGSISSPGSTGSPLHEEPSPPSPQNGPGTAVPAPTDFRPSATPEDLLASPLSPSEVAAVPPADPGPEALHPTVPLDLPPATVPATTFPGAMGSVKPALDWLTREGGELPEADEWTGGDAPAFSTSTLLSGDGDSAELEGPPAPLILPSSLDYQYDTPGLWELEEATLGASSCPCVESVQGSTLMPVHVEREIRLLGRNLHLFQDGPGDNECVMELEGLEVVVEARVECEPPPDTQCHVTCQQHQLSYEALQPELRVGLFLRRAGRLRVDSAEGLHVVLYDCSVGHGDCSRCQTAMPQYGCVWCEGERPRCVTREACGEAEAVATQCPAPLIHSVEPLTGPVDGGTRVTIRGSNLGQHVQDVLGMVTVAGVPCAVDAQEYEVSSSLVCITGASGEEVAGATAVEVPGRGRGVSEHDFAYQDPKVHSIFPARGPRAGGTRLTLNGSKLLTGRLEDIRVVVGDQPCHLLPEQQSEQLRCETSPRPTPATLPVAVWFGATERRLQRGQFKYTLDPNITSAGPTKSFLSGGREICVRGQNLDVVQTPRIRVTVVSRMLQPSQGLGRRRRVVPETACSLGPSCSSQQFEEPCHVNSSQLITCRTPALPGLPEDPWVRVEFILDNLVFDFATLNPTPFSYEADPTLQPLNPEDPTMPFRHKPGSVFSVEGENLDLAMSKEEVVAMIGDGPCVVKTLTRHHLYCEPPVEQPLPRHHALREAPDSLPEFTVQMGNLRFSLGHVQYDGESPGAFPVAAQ
Method: (§1) A pull-down type binding experiment was performed to study whether or not Fn10-Fc having various cyclic peptides fused therein retained its binding ability, which the cyclic peptides had before fusion, to binding molecules. In accordance with the method described in Protein Exp. Purification, 2014, 95, 240-247, respective constructs encoding fusion proteins having a PA tag (product of Wako Pure Chemical Industries) added to the C terminus of an extracellular region of four binding molecules (each, single-pass membrane receptor) were created and the resulting constructs were each incorporated in an expression vector pcDNA3.1 (product of Thermo Fisher Scientific). After transient expression in Expi293F cells by the above-described method while using the vector, respective culture supernatants containing Plexin B1-PA, Met-PA, EGFR-PA, and TrkB-PA, which were soluble receptor fragments, were prepared.
(§2) To 0.5 mL of the culture supernatant containing the PA-tag added receptor extracellular region, 30 μL of Sepharose (product of Wako Pure Chemical Industries) on which NZ-1, an anti-PA tag antibody, was immobilized and the resulting mixture was mixed by rotation for 2 hours to capture the binding molecule on Sepharose. […]

Met-PA = biological target: T2, Met-PA (Homo sapiens, UniProt P08581); assay: pull-down type binding experiment, Met-PA captured on NZ-1 Sepharose, SDS-PAGE; conditions: Example 1, Fn10-Fc mutants, culture supernatant, FIG. 5
T2 construct: made in house; host or cells: Expi293F cells (secreted, culture supernatant)

EGFR-PA = biological target: T3, EGFR-PA (Homo sapiens, UniProt P00533); assay: pull-down type binding experiment, EGFR-PA captured on NZ-1 Sepharose, SDS-PAGE; conditions: Example 1, Fn10-Fc mutants, culture supernatant, FIG. 5
T3 construct: made in house; host or cells: Expi293F cells (secreted, culture supernatant)
Method: as §1, §2

TrkB-PA = biological target: T4, TrkB-PA (Homo sapiens, UniProt Q16620); assay: pull-down type binding experiment, TrkB-PA captured on NZ-1 Sepharose, SDS-PAGE; conditions: Example 1, Fn10-Fc mutants, culture supernatant, FIG. 5
T4 construct: made in house; host or cells: Expi293F cells (secreted, culture supernatant)
Method: as §1, §2

Plexin B1-Fc = biological target: T5, Plexin B1-Fc (Homo sapiens, UniProt O43157); assay: pulldown, Plexin B1-Fc captured on protein A-Sepharose, SDS-PAGE; assay type: binding; conditions: Example 7, PLAP mutants, FIG. 27
T5 construct: Protein A Sepharose that had captured a soluble receptor fragment Plexin B1-Fc therein
T5 sequence (O43157 20-1490 limits assumed): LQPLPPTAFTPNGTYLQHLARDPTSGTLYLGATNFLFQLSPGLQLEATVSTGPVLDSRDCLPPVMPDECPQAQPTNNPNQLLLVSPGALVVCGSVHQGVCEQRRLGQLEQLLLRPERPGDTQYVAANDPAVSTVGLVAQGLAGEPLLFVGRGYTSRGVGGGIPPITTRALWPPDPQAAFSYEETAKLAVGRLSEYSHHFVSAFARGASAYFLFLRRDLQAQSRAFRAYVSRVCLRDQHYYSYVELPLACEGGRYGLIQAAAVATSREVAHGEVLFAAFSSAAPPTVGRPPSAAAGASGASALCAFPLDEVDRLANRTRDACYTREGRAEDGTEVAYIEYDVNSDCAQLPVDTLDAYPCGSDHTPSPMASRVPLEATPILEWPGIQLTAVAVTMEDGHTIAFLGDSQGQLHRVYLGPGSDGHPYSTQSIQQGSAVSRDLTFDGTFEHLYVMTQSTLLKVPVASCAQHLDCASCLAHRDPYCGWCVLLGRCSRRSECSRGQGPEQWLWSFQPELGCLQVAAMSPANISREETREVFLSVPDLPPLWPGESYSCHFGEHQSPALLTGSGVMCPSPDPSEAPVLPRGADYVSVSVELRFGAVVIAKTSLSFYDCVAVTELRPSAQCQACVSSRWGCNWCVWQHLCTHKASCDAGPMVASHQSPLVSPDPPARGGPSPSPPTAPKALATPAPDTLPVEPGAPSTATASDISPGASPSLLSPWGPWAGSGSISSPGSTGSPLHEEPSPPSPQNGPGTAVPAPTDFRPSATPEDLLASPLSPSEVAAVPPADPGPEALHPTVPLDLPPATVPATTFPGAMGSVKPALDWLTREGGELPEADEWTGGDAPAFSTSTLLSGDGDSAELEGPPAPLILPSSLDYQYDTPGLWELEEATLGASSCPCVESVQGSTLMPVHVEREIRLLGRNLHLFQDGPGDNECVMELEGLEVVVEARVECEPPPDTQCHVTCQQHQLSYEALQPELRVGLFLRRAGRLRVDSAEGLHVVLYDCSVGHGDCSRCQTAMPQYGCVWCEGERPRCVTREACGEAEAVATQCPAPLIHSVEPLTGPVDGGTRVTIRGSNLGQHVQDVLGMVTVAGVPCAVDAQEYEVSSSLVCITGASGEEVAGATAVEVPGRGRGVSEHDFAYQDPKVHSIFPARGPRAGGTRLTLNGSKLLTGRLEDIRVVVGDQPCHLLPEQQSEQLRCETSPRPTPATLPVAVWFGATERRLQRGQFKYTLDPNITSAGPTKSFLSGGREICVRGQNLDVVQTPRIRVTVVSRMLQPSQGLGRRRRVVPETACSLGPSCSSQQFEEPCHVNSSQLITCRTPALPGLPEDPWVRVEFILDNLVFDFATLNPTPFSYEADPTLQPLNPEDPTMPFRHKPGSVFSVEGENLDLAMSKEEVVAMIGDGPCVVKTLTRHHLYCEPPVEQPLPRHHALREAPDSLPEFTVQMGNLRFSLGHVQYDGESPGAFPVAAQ
From the text: It is to be noted, however, that for the mP6-9 peptide fusion protein, not Plexin B1-PA but Plexin B1-Fc protein was used as a binding molecule and as pulldown beads, not NZ-1-Sepharose but protein A-Sepharose was used.

Met-Fc = biological target: T6, Met-Fc (Homo sapiens, UniProt P08581); assay: pulldown, Met-Fc captured on Protein A Sepharose, SDS-PAGE; assay type: binding; conditions: Example 7, PLAP mutants, FIG. 27
T6 construct: captured a soluble receptor fragment Plexin B1-Fc or Met-Fc therein
From the text: Binding of the resulting cyclic peptide fusion protein (PLAP mutant) to Protein A Sepharose that had captured a soluble receptor fragment Plexin B1-Fc or Met-Fc therein by the method described above I Example 1 was studied by the pulldown method.

T6 sequence (P08581 25-932 limits assumed): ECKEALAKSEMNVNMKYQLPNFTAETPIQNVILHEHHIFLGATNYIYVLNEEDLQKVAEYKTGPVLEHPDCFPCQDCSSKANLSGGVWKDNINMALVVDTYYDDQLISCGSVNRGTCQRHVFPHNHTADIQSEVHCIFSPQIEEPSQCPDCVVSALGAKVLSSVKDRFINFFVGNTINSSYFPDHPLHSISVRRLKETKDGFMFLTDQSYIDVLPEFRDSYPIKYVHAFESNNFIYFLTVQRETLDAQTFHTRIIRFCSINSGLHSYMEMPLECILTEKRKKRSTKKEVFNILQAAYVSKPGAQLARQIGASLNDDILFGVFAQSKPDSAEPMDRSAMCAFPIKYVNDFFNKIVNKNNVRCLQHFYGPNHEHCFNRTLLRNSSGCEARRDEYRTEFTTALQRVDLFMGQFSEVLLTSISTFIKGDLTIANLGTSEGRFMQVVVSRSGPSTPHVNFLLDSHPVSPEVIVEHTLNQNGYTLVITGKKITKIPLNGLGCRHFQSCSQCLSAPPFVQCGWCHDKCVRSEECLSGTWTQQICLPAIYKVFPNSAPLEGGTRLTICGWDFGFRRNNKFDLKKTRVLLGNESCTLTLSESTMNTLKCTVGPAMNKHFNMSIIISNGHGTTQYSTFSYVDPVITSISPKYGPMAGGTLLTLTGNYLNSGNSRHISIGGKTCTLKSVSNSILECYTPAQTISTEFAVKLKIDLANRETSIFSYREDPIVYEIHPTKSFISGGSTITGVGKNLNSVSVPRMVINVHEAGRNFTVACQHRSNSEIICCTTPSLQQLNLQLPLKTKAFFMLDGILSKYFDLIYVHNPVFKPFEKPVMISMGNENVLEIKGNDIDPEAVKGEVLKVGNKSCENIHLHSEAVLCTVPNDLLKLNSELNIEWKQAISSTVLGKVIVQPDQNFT
T2 sequence (P08581 25-932 limits assumed): as above

binding to Plexin B1-PA (pulldown) (Plexin B1-PA; Example 1, Fn10-Fc mutants, culture supernatant, FIG. 5): did not show a binding property
binding to Met-PA (pulldown) (Met-PA): did not show a binding property
binding to EGFR-PA (pulldown) (EGFR-PA): did not show a binding property
binding to TrkB-PA (pulldown) (TrkB-PA): did not show a binding property
Molecule: Fn10-Fc: tenth Type III repeat domain of human fibronectin (residues 1418 to 1509) fused to human IgG1 Fc, no peptide inserted; control

binding to Plexin B1-PA (pulldown) (Plexin B1-PA; Example 5, hGH mutants, FIG. 20B): does not bind to Plexin B1-PA
Molecule: hGH: full-length human growth hormone with Hisx8 tag and TEV site, no cyclic peptide fused; control

binding to Plexin B1-Fc (pulldown) (Plexin B1-Fc): does not bind
binding to Met-Fc (pulldown) (Met-Fc): does not bind
B1: PLAP: full-length human placental alkaline phosphatase with Myc and Hisx6 tags, no cyclic peptide fused; control (protein, UniProt P05187 1-535, looked up)
chain: MLGPCMLLLLLLLGLRLQLSLGIIPVEEENPDFWNREAAEALGAAKKLQPAQTAAKNLIIFLGDGMGVSTVTAARILKGQKKDKLGPEIPLAMDRFPYVALSKTYNVDKHVPDSGATATAYLCGVKGNFQTIGLSAAARFNQCNTTRGNEVISVMNRAKKAGKSVGVVTTTRVQHASPAGTYAHTVNRNWYSDADVPASARQEGCQDIATQLISNMDIDVILGGGRKYMFRMGTPDPEYPDDYSQGGTRLDGKNLVQEWLAKRQGARYVWNRTELMQASLDPSVTHLMGLFEPGDMKYEIHRDSTLDPSLMEMTEAALRLLSRNPRGFFLFVEGGRIDHGHHESRAYRALTETIMFDDAIERAGQLTSEEDTLSLVTADHSHVFSFGGYPLRGSSIFGLAPGKARDRKAYTVLLYGNGPGYVLKDGARPDVTESESGSPEYRQQSAVPLDEETHAGEDVAVFARGPQAHLVHGVQEQTFIAHVMAFAACLEPYTACDLAPPAGTTDAAHPGRSVVPALLPLLAGTLLLLETATAP
modifications: full-length Myc and His6 tags
notes: full-length human placental alkaline phosphatase with Myc and Hisx6 tags, no cyclic peptide fused; control
